The DeepSol protein solubility set

Test: soluble on expression in E. coli; label from the status in PepcDB or PDB records

| Sequence | soluble on expression in E. coli |
| --- | --- |
| MGSDKIHHHHHHMNVLASKDFRTEKRPLPFECIALVLQGGGALGAYQAGVYEALAEADIHPDWVAGVSIGAINSAIIAGNEPTERVPKLRAFWREISANPLLDWAAASPALAPTGTLPRLLFNQFSAACALVAGAPGFFSLRQPVPWLQADGSLEGTSFYETKHLKSTLERLVDFDRINAGRMRFSVGAVNVRSGNFVYFDNDQHTIRPEHVMASGSLPPGFPAVEIDGEFYWDGGLISNTPLQWVVEHGARQDTLAFQVDLWSARGEFPRNLSEVATRQKEIQYASRSRAHTDQFKQYQRARHTLASLLSKLPPELLDSEEATALSSIADHKVYKLVHLTYRSKQHEGHSKDHEFSRLSMEEHWRAGYFDAVRTLRHPEALLRPDNLEGVSTYDLAEDGRE | not soluble |
| MDKLIIGGIEIKNRLFVGSGKYPSNEIIKDVLEGSGSQVITLALRRVDLDNKEEDILQNIPKDVILLPNTSGATNAEEAIRIARIARAMGCGNWIKIEVISDSKYLLPDNEETIKATKVLADEGFIVLPYMCPDIYAGRRLIEAGAAAVMPLGAPIGSNRGLKTKELIQIMIDELDIPIIVDAGIGKPSQAMEAMEMGAAACLVNTAIASSEDPINMARAFKVAVEGGRLAYEAKMGRESKFGNASSPLTGFLDLEHHHHHH | not soluble |
| MGSDKIHHHHHHMIYLKIIRGFFSALREHPQSQSIPVIFVSALDETANQIQGLQGGAIDYLVKPVQPDILKLRLANLLATVNLQRDLQANYDNMLELSRLRDCVDELIHHDLKSPLSAISAMLQRLSQDKSCPKGWRSKLTAIHDLTMQSINTVNLSSEIFKIETGRFILKPERFSAHGLVKQVLHSMHVTFHHKQLIAFQFPDEDPNGQFDVLADETLTYSLLLNLIKNAFEASTMRTKVAIHLSIEQGNVVIQIENSGVVPEHIRPRFWDKYVTSQKEEGAGLGTYSACLLAKAQGGTTQLQVDDLQNKTIVTVCLPAAT | not soluble |
| MRGSHHHHHHGKQLTILGSTGSIGCSTLDVVRHNPEHFRVVALVAGKNVTRMVEQCLEFSPRYAVMDDEASAKLLKTMLQQQGSRTEVLSGQQAACDMAALEDVDQVMAAIVGAAGLLPTLAAIRAGKTILLANKESLVTCGRLFMDAVKQSKAQLLPVDSEHNAIFQSLPQPIQHNLGYADLEQNGVVSILLTGSGGPFRETPLRDLATMTPDQACRHPNWSMGRKISVDSATMMNKGLEYIEARWLFNASASQMEVLIHPQSVIHSMVRYQDGSVLAQLGEPDMRTPIAHTMAWPNRVNSGVKPLDFCKLSALTFAAPDYDRYPCLKLAMEAFEQGQAATTALNAANEITVAAFLAQQIRFTDIAALNLSVLEKMDMREPQCVDDVLSVDANAREVARKEVMRLASSACDLGTPGRPAAKLN | soluble |
| MGSDKIHHHHHHMAQYSAQFNHAKVLVLGDVMLDRYWFGATNRISPEAPVPVVRVQQNEERAGGAANVAMNIASLNVPVQLLGLTGQDEAGAALTSLLQQQKIACDFVQLATHPTITKLRILSRHQQLLRLDFEEDFQNMTSADLLKKLESAVKNYGALILSDYGKGTLNEVQKMIQIARNANVPVLIDPKGTDFERYRGATLLTPNMSEFEAVVGKCHSEQEIIDKGLKLISEINLTALLVTRSEKGMTLLRPNQPVYHLPTEAKEVFDVTGAGDTVISVLATALADGRSFEEACYLANVAAGIVVGKLGTSTVSTVELENAIHGRTGTGFGVMTEAELKEAVKLAKDRGEKIVMTNGCFDILHPGHVSYLDNARKFGDRLIVAVNTDDSVKRLKGEERPINNLASRMAVLAGLSSVDWLVPFGEDTPQRLIGEVLPDLLVKGGDYKPEEIAGSKEVWANGGDVKVLNFENGFSTSNVIKKIKHLEK | not soluble |
| MWFIMMDTKDPPTLLDLATQNLLSNEHAAIQALEEIPRELFVPLFTAAFTGRHKNILTAIVKAWPFACLHIGALSVQEPERELLKALIESLQFLLALNSATRSPKLRILDLRQDAGCKTVCPEISTNSTICFRSCAHSEHSIFKIEGQESLSSSKSEAQPSRLPMELIVDISLDGTLRERNFFALLQNKVEQSLGSLHLCCRDLQINNLCECRHALSHLDLKCVDHLAVDESPLTEVTKLLSHTIQLDSLSLSKIACRSLNGRTFRNFITQLSRMNHLKELSLSSFCLTDHLENVLRVLSADLEFLYLPFCGLSYSDFKFLSECSQVSHLKLLNVNNNPIYWEDCEPFYYLLQNVSSTLQHLKICYCFLTDSTISVLIPALTRCSQLRVLHFYSNQITMGMLMRILELLTPLKELKHVIYPIPVHCYGRWHFQGSLDRQKVEDVQRQLNLMLQEAERSDMNWITYSD | not soluble |
| MFEGFKEVTDKDFYKAVMMNPKPSVVVFTDPNNPANEQIKPILEKYQKLYGDKIDFFYMDVTKNTSFEDFGIFNFPAILYFRDTMELDRHDFIPTEEMVEQAIKRLLRMV | not soluble |
| MLKNLRIRKFEPEEEYVYFTYSIKNDKREKSKELIREYTTLLQKAIDYLWNLTKIQVRKKNGNYKITLPKKREVYKPLREELEKINHLASHYVDKAINDAFSILKSWRKRAIKGRASIEKPRVKKAYVRIKTTLRKVVGESVRITVRPHEYITFSWSKSWFSRRVRELELGEPIIKEEKVYLPFRYKLPWATPVDFLAIDSNLYTLDAYDGEKFVTISLKQLYSLKYSMEVKRAKVQSFASKHTKRGRELMRKYSHRERNRVLDFVHKFVNTLLDLYPMTFFAVEKLNKESMFKDANDSLSRKISRTVWGSIHRVLKYKAPLYGSFVKEVNPRFTSRSCPRCGFVSRKVGKTFECERCGFKLDRQLNASLNIYLKMCGFPHIREIARVWVGVIPLMGRRGMNGFPRDFGEAQGLRIDIEYHEIPLEHHHHHH | soluble |
| MESYLTVIEQNGQLLVDSREVAEMVGKRHTDLLRSIDGYVAILLNAKLRSVEFFLESTYKDATGRSLKHFHLTRKGCDMVANKMTGAKGVLFTAQYVSKFEEMEKALKARPSLIDTYLDMNEDERAIAYFTERKAKRELQEQLTLAEPKVEKYDRFLNTDGLMKIGQVAKAIGIKGMGQNNLFRFLRENKVLIDGTNKNAPYQKYVERGFFQVKTQETSVGIKTITLVTPKGADFIVDLLKKHGHKREIAS | not soluble |
| MDYFPVISVDLQSGRRVVSVEYFRGDGPPRIPYSMVGPCCVFLMHHRPSHEVRLRFSDFYNVGEFPYRVGLGDFASNVAPPPAKPFQRLIDLIGHMTLSDFTRFPNLKEAISWPLGEPSLAFFDLSSTRVHRNDDIRRDQIATLAMRSCKITNDLEDSFVGLHRMIATEAILRGIDLCLLPGFDLMYEVAHVQCVRLLQAAKEDISNAVVPNSALIVLMEESLMLRSSLPSMMGRNNWIPVIPPIPDVEMESEEESDDDGFVEVD | not soluble |
| GLMALLMVFAVSIGGLTQIVPLFFQDVTNKPVEGMKPYTALQLEGRDVYIREGCVGCHSQMIRPFRAETERYGHYSVAGESVWDHPFLWGSKRTGPDLARVGGRYSDDWHRAHLYNPRNVVPESKMPSYPWLVAQPVDNSHTDVKMRTLRTLGVPYTDDDIAGAREAVKGKTEMDALVAYLQVLGT | not soluble |
| MGSDKIHHHHHHTVQNAQLSQQHAPCVDNKWPKSRLLSLAGSQFEMTDADRNDMVMRLISCLADTDPELRDAVAFSGLSHWLRANDLTNETVKSLYTKLSGDVRKRKDDPNGVYLPFAILTLSEVARVDRVSPFFEPAERDALSKLAADTMAGIQDYRGFDETIGWRHQVAHSADLLLQLVLNPALSSDDIMELVTSIQHQLSPAGHFYVYGEPERLARPVLYAMLRDDIPDSFWHSQLARWSTPVHIEGWDKAFSSNAGLAERHNRRAFFSALLLGISGSKQPRLLALQPAIQAAMKKLP | not soluble |
| MGHHHHHHSHMTKLPPIEQLLPHDKPMILVDRAMDIQQDTIHCQVDIAEHNPFFDSASQTVPAYVGIEFMAQSVAAWSGYHALMKEQAPPIGFLLGSRRYTSECDAFSRGQMLDVYAEKVMEDNGMAVFSARIELQGTVVATCQLNVYVPSEEKLQEMKIRSQQ | not soluble |
| YASRDMDIKRLGKAVMAAAGSPGHFPDVAIPGGVRALPDPQALAELRLPENYEESFEPVPYDGFDMMLTSHGTLDPLGDHVTARSGEERITFDLQTWADHVAESRPGDPAPRPLVHGHPYRVGPYAHGEAMVPRSLAEIRRIIADPRLCEGEFRKESSILSGIGVGAVEGPRGLLVHRYVANEDGVLVDCQILTPTAQNEAWLASMLEASLQQDSDRGVELSVENSIRTANPCLPCSSAPEGHMGVVIEKGN | not soluble |
| MSLEQLNERTVLEYVEKTDLRKSILGDGKLSAQIISEGNVNLIFRICNIENGNSVILKQALPYAWRYPDFKMPVDRQRIEYETLSIESQYAPDYVPKIYFYDNKSHVLVIEDLKELKVMREALIDGEIFPKVAEHIGIFMAKTLFYTSDLYLSSGKKKEMVINFSNPVLCKVQEDLVFTQPYIDHPNNKWSKPLDEIVKKIHQDDKIRGEIFYFKELYMTKSQALIHNDLHTGSIMLNEKTTKVIDPEFAFYGPMAHDIGTYFANLAIAYAAQEAHRVEPGTRNVYREWIAESFEETWNVFQQRFLNAWEKDSNGEWPSESYRENYMLRLLKESAGFGAAEIFRRTIGMAHVHDFWTIKDENIRAKSESIALYIAINWINMWKDVEKIQDLSQVMKNSKPLEGHHHHHH | soluble |
| MTAPFKDHFSTGSANYAAHRPTYPAQLVDELAALCPGTRLALDCGCGTGQLTVLLAERFERVVGTDASAAQIDKAQARERVEYRVALAEDSGLAAASADLVTVAQAAHWLDLPRFYEEVRRVARADAILALVTYGVLHVDGPMEPLVQHFYHQVVGPYWPAERRHVEEGYRNLPFPFEERRLPDLAIEVAWTLDELLGYVGTWSAVKEAGKALGQDPGAAFVDELREAWGDPQTRYRVSWPLTVRAGVIR | not soluble |
| MSSTKIDTTKPLSILLLGVDTGADGRIDKGNSDTIMVVTINPQTKKTLITSIPRDSLAEMVGDQDTNVQKLNAAYNIGGSKMAKASVSKLFNVPIDYYATINMGGLKQIVDAVGGVTITSPLNVSFDHITVTKGKHHLNGKQALSYTRMRYQDPRGDYGRQLRQQQVMRAVLAKLAETKTYSRYNQLLTSLKGNLQTDLSFNDLVGLATHDRANMKHIQSTQVIGSPAWINTSSYQILSTKTLQQTSDRLRTQLGLSTETLTNMETKLNAKNTVYDGKTNLNYDTQGLDKITYSDNTKLEHHHHHH | soluble |
| HGSSTVDELTAAFTGGAATGEGGLTLTAPEIAENGNTVPIEVKAPGAVAIMLLAAGNPEPAVATFNFGPAAADQRAATRIRLAQTQDVIALAKMADGSVVKAQTTVKVTIGGCGG | soluble |
| MKTLNNTHIGQIYYIHKIIGKNQAKLRDLGMISDKKITLISTDGENAIVKIDETRLALSSEFLEQIFVKEERSSEDIIGLAHLQVGQTGVVRMIDATSDIRRRLMDMGITRGTSVHLQKLAPLGDPLELRLRGYSLSLRKTDAEKIKVVLERLEHHHHHH | soluble |
| MSLVDMVNRPYERAFEQHALANPDVLCISADLTSSCEIDKFRDNHPDQFLSMGMAEQNMMSFCGGLGLAGFRPFVHTFGVFTYRRPYDQLMASIAYPRRKVRIMGFLPGITTPGGMTHQAIEDIAVMRSMPNMTILETGDATEVESICAAADSIDGPVYCRVLRGSVPRLFDTPIKVGEMREISLGDDVLIVTAGITTEEAMRATRALEAAGVSVRHLHLHTIKPFDAGALLDHIGAVRGGVITLENHVTEGGIGSLVAEVMADNGIGKKLRRLGLKDTYAHGGSRAYLMRYYGLDALALTRGVEDLLGQPLGITEEDLAQARVEAVHSLAKAEGEGHHHHHH | not soluble |
